# According to patent US20020028208A1 (TEXAS A AND M UNIVERSITY SYSTEM, published 2002):
# T1: huCD80-Ig fusion protein (human, UniProt P33681 35-241)
# T1 construct: Provided by P. Linsley, Bristol-Meyers Squibb; also called soluble CD80 receptor; soluble receptor for CD28; not shown: Ig part of the fusion
# T1 sequence (looked up): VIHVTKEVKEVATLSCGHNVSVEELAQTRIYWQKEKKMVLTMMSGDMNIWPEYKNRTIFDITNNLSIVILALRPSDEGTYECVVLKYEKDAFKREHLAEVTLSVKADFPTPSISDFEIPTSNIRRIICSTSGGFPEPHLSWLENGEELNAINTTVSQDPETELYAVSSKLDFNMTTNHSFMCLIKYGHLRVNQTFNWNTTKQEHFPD
# B1: feline CD28, surface expressed on CD28-pSI transfected COS-7 cells (receptor)
# chain: NKILVKQLPRLVVYNNEVNLSCKYTHNFFSKEFRASLYKGVDSAVEVCVVNGNYSHQPQFYSSTGFDCDGKLGNETVTFYLRNLFVNQTDIYFCKIEVMYPPPYIDNEKSNGTIIHVKEKHLCPAQLSPESSKPFWALVVVGGILGFYSLLATVALGACWMKTKRSRILQSDYMNMTPRRPGPTRRHYQPYAPARDFAAYRS
# notes: also called feCD28; CD28 pSI transfected cells
# Key:
# [1] = molecular target: B1; assay: cell-cell adhesion assay at 1x10^6 labeled CD80-pSI COS-7 cells on a CD28-pSI COS-7 monolayer; still significantly higher at 5x10^5 cells, not distinguishable at 1x10^5 and 1x10^4
# Experimental: (§1) Binding assays for transfected cells expressing feline CD80 and feline CD28 were performed after the protocol described in Linsley et al., 1994a. One day after transfection, CD28 expressing COS-7 cells were removed from T-75 flasks with trypsin-EDTA treatment. The cells were allowed to adhere in 24 well plates at a concentration of 1×10⁵ cells per ml. Two days later, the feCD80/pSI transfected COS-7 cells were removed from T-75 flasks with PBS/0.5 […] EDTA. These cells were then fluorescently labeled with a 5 μM solution of Calcein AM (Molecular Probes, Eugene, Oreg.) in sterile PBS/1% BSA for 30 min at 37° C. (Akeson and Woods, 1993). Mock transfected COS-7 cells were labeled in the same fashion. The labeled cells were then washed three times with DMEM plus 10% FCS to remove unincorporated label, counted, and added directly to the monolayer. The two cell populations were allowed to interact for 1 hr at 37° C. Nonadherent cells were removed by gently washing the monolayer 3 times with DMEM +10% FCS. Following the washing, the fluorescence of each of the wells was quantitated on a microplate fluorimeter. Fluorescence in wells containing transfected populations was compared to wells in which CD80 expressing cells were added to COS-7 cells transfected with pSI plasmid alone. […]
# huCD80-Ig fusion protein = molecular target: T1, huCD80-Ig fusion protein; assay: competitive cell-cell adhesion assay: CD28-pSI COS-7 monolayer pre-incubated with CD80 Ig at 1 ug/ml for 30 min and washed before labeled CD80-pSI COS-7 cells were added
# Experimental: as §1
"fluorescence retained, fold over wells with mock transfected adherent cells [1] [fold]",binding result (huCD80-Ig fusion protein),Binder
~5,–,"feline CD80 (B7-1)-TAMU, surface expressed on feCD80/pSI transfected COS-7 cells (ligand, also called CD80-pSI transfected COS cells) ASLFYFCSGIIQVNKTVEEVAVLSCDYNISTKELTEIRIYWQKDDEMVLAVMSGKVQVWPKYKNRTFTDVTDNHSIVIMALRLSDNGKYTCIIQKIEKGSYKVKHLTSVMLLVRADFPVPSITDLGNPSHNIKRIMCLTSGGFPKPHLSWLENEEELNAINTTVSQDPETELYTISSELDFNMTNNHSFLCLVKYGNLLVSQIFNWQKSEPQPSNNQLWIIILSSVVSGIVVITALTLRCLVHRPAARWRQREMGRARKWKRSHLST"
–,binds,B1
